Source: the supplement of paper PMC11246515
± gives the standard deviation of the averaged measurements.

Assay: total protein half-life in vivo (active degradation + dilution); higher = more stable protein
[1] = E. coli NCM3722 delta-clpP delta-lon delta-hslV, growth: N-lim chemostat, doubling time 6 h
[2] = E. coli NCM3722 delta-clpP, growth: N-lim chemostat, doubling time 6 h
[3] = E. coli NCM3722 delta-hslV, growth: N-lim chemostat, doubling time 6 h
[4] = E. coli NCM3722 delta-lon, growth: N-lim chemostat, doubling time 6 h
[5] = E. coli NCM3722 delta-smpB, growth: N-lim chemostat, doubling time 6 h
[6] = wild type E. coli NCM3722, growth: C-lim chemostat, doubling time 3 h
[7] = wild type E. coli NCM3722, growth: C-lim chemostat, doubling time 6 h
[8] = wild type E. coli NCM3722, growth: C-lim chemostat, doubling time 12 h
[9] = wild type E. coli NCM3722, growth: N-lim chemostat, doubling time 6 h
[10] = wild type E. coli NCM3722, growth: N-lim chemostat, doubling time 12 h
[11] = wild type E. coli NCM3722, growth: P-lim chemostat, doubling time 6 h
[12] = wild type E. coli NCM3722, growth: P-lim chemostat, doubling time 12 h

Sequence | total protein half-life in vivo [1] | total protein half-life in vivo [2] | total protein half-life in vivo [3] | total protein half-life in vivo [4] | total protein half-life in vivo [5] | total protein half-life in vivo [6] | total protein half-life in vivo [7] | total protein half-life in vivo [8] | total protein half-life in vivo [9] | total protein half-life in vivo [10] | total protein half-life in vivo [11] | total protein half-life in vivo [12]
MTLLALGINHKTAPVSLRERVSFSPDKLDQALDSLLAQPMVQGGVVLSTCNRTELYLSVEEQDNLQEALIRWLCDYHNLNEEDLRKSLYWHQDNDAVSHLMRVASGLDSLVLGEPQILGQVKKAFADSQKGHMKASELERMFQKSFSVAKRVRTETDIGASAVSVAFAACTLARQIFESLSTVTVLLVGAGETIELVARHLREHKVQKMIIANRTRERAQILADEVGAEVIALSDIDERLREADIIISSTASPLPIIGKGMVERALKSRRNQPMLLVDIAVPRDVEPEVGKLANAYLYSVDDLQSIISHNLAQRKAAAVEAETIVAQETSEFMAWLRAQSASETIREYRSQAEQVRDELTAKALAALEQGGDAQAIMQDLAWKLTNRLIHAPTKSLQQAARDGDNERLNILRDSLGLE [P0A6X1] | 4.33 ± 0.069 h | 2.95 ± 0.26 h | 1.55 h | 1.59 ± 0.083 h | 1.51 ± 0.25 h | 1.03 h | 1.84 ± 0.15 h | 2.76 ± 0.68 h | 1.35 ± 0.31 h | 2.08 h | 1.29 ± 0.43 h | 1.9 h
MTLLGTALRPAATRVMLLGSGELGKEVAIECQRLGVEVIAVDRYADAPAMHVAHRSHVINMLDGDALRRVVELEKPHYIVPEIEAIATDMLIQLEEEGLNVVPCARATKLTMNREGIRRLAAEELQLPTSTYRFADSESLFREAVADIGYPCIVKPVMSSSGKGQTFIRSAEQLAQAWKYAQQGGRAGAGRVIVEGVVKFDFEITLLTVSAVDGVHFCAPVGHRQEDGDYRESWQPQQMSPLALERAQEIARKVVLALGGYGLFGVELFVCGDEVIFSEVSPRPHDTGMVTLISQDLSEFALHVRAFLGLPVGGIRQYGPAASAVILPQLTSQNVTFDNVQNAVGADLQIRLFGKPEIDGSRRLGVALATAESVVDAIERAKHAAGQVKVQG | 5.17 ± 0.51 h | 4.76 ± 0.66 h | 4.361 ± 0.017 h | 4.5 ± 0.32 h | 4.11 ± 0.3 h | 3.033 ± 0.014 h | 5.96 ± 0.31 h | 10.2 ± 0.59 h | 4.28 ± 0.2 h | 6.95 ± 0.21 h | 6.14 ± 0.1 h | 10.1 ± 0.19 h
MTLRTENLTVSYGTDKVLNDVSLSLPTGKITALIGPNGCGKSTLLNCFSRLLMPQSGTVFLGDNPINMLSSRQLARRLSLLPQHHLTPEGITVQELVSYGRNPWLSLWGRLSAEDNARVNVAMNQTRINHLAVRRLTELSGGQRQRAFLAMVLAQNTPVVLLDEPTTYLDINHQVDLMRLMGELRTQGKTVVAVLHDLNQASRYCDQLVVMANGHVMAQGTPEEVMTPGLLRTVFSVEAEIHPEPVSGRPMCLMR | 5.53 ± 0.17 h |  |  |  |  |  |  |  |  |  |  | 3.42 h
MTLSFVTRWRDELPETYTALSPTPLNNARLIWHNTELANTLSIPSSLFKNGAGVWGGEALLPGMSPLAQVYSGHQFGVWAGQLGDGRGILLGEQLLADGTTMDWHLKGAGLTPYSRMGDGRAVLRSTIRESLASEAMHYLGIPTTRALSIVTSDSPVYRETAEPGAMLMRVAPSHLRFGHFEHFYYRRESEKVRQLADFAIRHYWSHLADDEDKYRLWFSDVVARTASLIAQWQTVGFAHGVMNTDNMSLLGLTLDYGPFGFLDDYEPGFICNHSDHQGRYSFDNQPAVALWNLQRLAQTLSPFVAVDALNEALDSYQQVLLTHYGERMRQKLGFMTEQKEDNALLNELFSLMARERSDYTRTFRMLSLTEQHSAASPLRDEFIDRAAFDDWFARYRGRLQQDEVSDSERQQLMQSVNPALVLRNWLAQRAIEAAEKGDMTELHRLHEALRNPFSDRDDDYVSRPPDWGKRLEVSCSS | 4.63 ± 0.32 h | 4.26 ± 0.67 h | 3.15 ± 0.38 h | 3.26 ± 0.13 h | 2.8 ± 0.21 h | 2.72 ± 0.068 h | 4.57 ± 0.15 h | 8.02 ± 1.4 h | 2.971 ± 0.012 h | 4.63 ± 0.64 h | 4.72 ± 0.71 h | 8.293 ± 0.077 h
MTLTLNRQLLTSRQILVAFSGGLDSTVLLHQLVQWRTENPGVALRAIHVHHGLSANADAWVTHCENVCQQWQVPLVVERVQLAQEGLGIEAQARQARYQAFARTLLPGEVLVTAQHLDDQCETFLLALKRGSGPAGLSAMAEVSEFAGTRLIRPLLARTRGELVQWARQYDLRWIEDESNQDDSYDRNFLRLRVVPLLQQRWPHFAEATARSAALCAEQESLLDELLADDLAHCQSPQGTLQIVPMLAMSDARRAAIIRRWLAGQNAPMPSRDALVRIWQEVALAREDASPCLRLGAFEIRRYQSQLWWIKSVTGQSENIVPWQTWLQPLELPAGLGSVQLNAGGDIRPPRADEAVSVRFKAPGLLHIVGRNGGRKLKKIWQELGVPPWLRDTTPLLFYGETLIAAAGVFVTQEGVAEGENGVSFVWQKTLS | 5.68 ± 0.23 h | 5.01 ± 0.08 h | 4.74 ± 0.42 h | 4.89 ± 0.25 h | 4.44 ± 0.24 h |  | 5.78 ± 0.29 h | 11 ± 0.83 h | 5.27 ± 0.28 h | 8.42 ± 0.81 h | 6.31 ± 0.15 h | 11.6 ± 1 h
